Results from patent US20150343090A1.

Target: neuropilin-1 (NRP-1) receptor on PPC-1 prostate cancer cells (human) (UniProt O14786)
Experiment: cell-based or functional assay

UniProt O14786, sequence (O14786 22-923): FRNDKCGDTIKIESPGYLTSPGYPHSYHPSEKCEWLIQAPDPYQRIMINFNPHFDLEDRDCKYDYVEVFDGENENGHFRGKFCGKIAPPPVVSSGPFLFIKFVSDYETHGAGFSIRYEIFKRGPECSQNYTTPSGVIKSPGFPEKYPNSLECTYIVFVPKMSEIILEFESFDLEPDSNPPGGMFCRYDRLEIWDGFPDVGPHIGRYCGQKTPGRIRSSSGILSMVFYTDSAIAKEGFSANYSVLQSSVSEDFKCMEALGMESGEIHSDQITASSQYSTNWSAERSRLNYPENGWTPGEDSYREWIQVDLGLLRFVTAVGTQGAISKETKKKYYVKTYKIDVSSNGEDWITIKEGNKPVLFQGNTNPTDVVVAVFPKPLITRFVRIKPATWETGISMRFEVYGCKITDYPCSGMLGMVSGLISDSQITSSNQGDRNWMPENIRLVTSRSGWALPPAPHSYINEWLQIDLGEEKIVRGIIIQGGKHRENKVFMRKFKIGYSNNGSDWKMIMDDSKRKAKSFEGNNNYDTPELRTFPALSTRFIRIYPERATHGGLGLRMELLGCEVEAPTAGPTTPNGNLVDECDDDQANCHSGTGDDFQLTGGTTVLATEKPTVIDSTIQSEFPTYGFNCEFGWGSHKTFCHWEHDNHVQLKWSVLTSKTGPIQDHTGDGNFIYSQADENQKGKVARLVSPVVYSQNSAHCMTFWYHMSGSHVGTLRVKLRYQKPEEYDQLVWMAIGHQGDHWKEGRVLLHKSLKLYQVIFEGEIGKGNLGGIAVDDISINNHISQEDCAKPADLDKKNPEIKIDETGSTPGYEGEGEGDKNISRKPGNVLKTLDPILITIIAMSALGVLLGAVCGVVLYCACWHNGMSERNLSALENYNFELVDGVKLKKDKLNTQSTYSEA

For “His-tag-GFP-RPARPAR (RPARPAR-modified GFP fusion protein) loaded on NTA-Ni hollow gold nanoshells”, the GFP internalized per PPC-1 cell (cell lysate fluorescence) (GFP molecules per cell) was 100000 and the nanoshells internalized per PPC-1 cell (calculated from cell lysate fluorescence) (RPARPAR GFP-HGN per cell) was 200.
